In assay [1] the target is canine kidney Na,K-ATPase (αβ protomer), erythrosin-labelled (dog (endogenous in kidney)) (UniProt P50997). Description: time-resolved phosphorescence anisotropy.
For assay [2], the target named is Na/K pump α1 subunit-CFP fusion. Description: FRET or BRET.

As a reminder, the stoichiometry N is a count of units in the complex or per binding partner. The substance “canine kidney Na,K-ATPase (αβ protomer), erythrosin-labelled (from UniProt P50997;P06583) (complex)” returned a stoichiometry N in assay [1] of 2.

Turning to “phospholemman-citrineYFP fusion (natural protein)”, the increase of donor fluorescence on acceptor photobleaching in assay [2] turned out to be 23.8%.

These data come from paper PMC2268108.
